Experimental data as given in patent US20240239892A1 (SUZHOU KANOVA BIOPHARMACEUTICAL, published 2024).

How the values were obtained:
[1] = target: T1, PD-1 (analyte of the SPR assay of Example 3) (human, UniProt Q15116 21-167, limits assumed); experiment: SPR (Biacore 8K), antibody captured by anti-human Fc, PD-1 as analyte
T1 construct: also called human PD-1
Description: Anti-human Fc gamma specific antibody (Jackson ImmunoResearch #109-005-098) was immobilized onto the sensor chip using amine coupling method. […] After equilibration, PD-1 was injected for 200 seconds (association phase) followed by the injection of running buffer for 600s (dissociation phase). Responses of reference flow cell (flow cell 1) were subtracted from those of humanized antibodies flow cells during each cycle. The surface was regenerated before the injection of other humanized antibodies. The process was repeated until all antibodies are analyzed. The off-rates of humanized antibodies were obtained from fitting the experimental data locally to 1:1 interaction model using the Biacore 8K evaluation software. The antibodies were ranked by their dissociation rate constants (off-rates, kd).

[2] = target: T2, his-tagged human PD-1 recombinant protein (PD-1/6His, in-house production, extracellular domain Pro21-Gln167) (human, UniProt Q15116 21-167); experiment: ELISA, plate coated with human PD-1/His; human PD-1
T2 construct: range 21-167; also called human PD-1/His; not shown: 6His tag
T2 sequence (Q15116 21-167 limits assumed): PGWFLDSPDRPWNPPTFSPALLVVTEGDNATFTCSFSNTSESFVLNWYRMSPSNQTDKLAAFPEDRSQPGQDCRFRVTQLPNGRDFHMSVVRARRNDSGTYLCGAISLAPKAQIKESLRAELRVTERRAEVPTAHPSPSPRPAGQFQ
Description: (§1) MaxiSorp 96-well plates (NUNC #449824) were coated with 2 μg/mL human PD-1/His (in-house production) or cynomolgus PD-1/His protein (ACROBiosystems #PD1-C5223) in 1× PBS (50 μL/well). Plates were incubated at 4° C. overnight. Coating solution was removed and plates were washed once with 200 μL/well PBST (1× PBS containing 0.05% tween-20). Then 200 μL/well blocking buffer (1× PBS with 0.05% tween-20, 3% BSA) was added and incubated at room temperature for 1 hour. Blocking buffer was removed and plates were washed with three times with 200 μL/well PBST. […] Plates were incubated at room temperature for 2 hours. Antibodies in the wells were removed and plates were washed three times with 200 μL/well PBST. Goat anti-human IgG (H&L)-HRP secondary antibody (Jackson Immuno Research #109-035-088) was diluted 1:5000 in 1× PBS and added to each well (50 μL/well). Plates were incubated at room temperature for 1 hour. Secondary antibody was removed and plates were washed five times with 200 μL/well PBST. 50 μL/well TMB (eBioscience #85-00-4201-56) was added and plates were incubated at room temperature for several minutes. Then 50 μL/well 2N H2SO4 was added to stop the reaction. Optical density was measured at 450 nm.

[3] = target: T3, chimeric PD-1 receptor on Jurkat cells (Jurkat/PD-1-CD3z/NF-luci cells) (human, UniProt Q15116 25-191; P20963 52-164, limits assumed); experiment: cell-based or functional assay
T3 sequence (Q15116 other isoform, or with tags, fused parts or gaps mutant limits assumed): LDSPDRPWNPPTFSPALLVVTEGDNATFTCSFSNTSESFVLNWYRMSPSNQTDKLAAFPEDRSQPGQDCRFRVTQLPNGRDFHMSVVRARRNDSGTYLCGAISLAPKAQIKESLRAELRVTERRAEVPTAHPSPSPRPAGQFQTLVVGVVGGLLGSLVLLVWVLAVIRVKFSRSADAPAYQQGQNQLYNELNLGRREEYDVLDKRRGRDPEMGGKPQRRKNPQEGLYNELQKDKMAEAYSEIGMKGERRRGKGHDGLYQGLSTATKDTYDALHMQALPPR

[4] = target: T4, cynomolgus PD-1/His protein (ACROBiosystems #PD1-C5223) (cynomolgus, UniProt B0LAJ3 25-170); experiment: ELISA, plate coated with cynomolgus PD-1/His
T4 construct: Commercial protein
T4 sequence (B0LAJ3 entry or part of it limits assumed): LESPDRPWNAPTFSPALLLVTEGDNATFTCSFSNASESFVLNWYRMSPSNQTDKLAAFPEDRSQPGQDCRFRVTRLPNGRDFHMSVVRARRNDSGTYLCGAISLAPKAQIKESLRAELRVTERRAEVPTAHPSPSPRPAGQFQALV
Description: as §1

[5] = target: T3, chimeric PD-1 receptor on Jurkat cells …; experiment: flow cytometry on human PD-1-expressing Jurkat cells
Description: Then cells were washed once by FACS buffer (PBS with 2% FBS) and incubated with Alexa Fluor 594 AffiniPure Goat Anti-human IgG secondary antibody (Jackson ImmunoResearch #109-585-088) at 4° C. for 30 minutes. After washed once by FACS buffer, cells were resuspended in 200 μL FACS buffer. The cells after staining were analyzed by BD LSRFortessa Flow Cytometer.

T1 sequence (Q15116 21-167 limits assumed): as the sequence (Q15116 21-167 limits assumed) above

B1: VH6 + VL1 (antibody, human IgG1, kappa, V domains shown)
VH: EVQLVESGGGLVQPGGSLRLSCAASGFTFSSYGMSWVRQAPGKRLEWVAIISGGGRDIYYLDSVKGRFTISRDNSKNTLYLQMNSLRAEDTAVYYCSSPIYDAYSFAYWGQGTLVTVSS
VL: EIVMTQSPATLSVSPGERATLSCRASQTISNNLHWYQQKPGQAPRLLIYYASQSISGIPARFSGSGSGTEFTLTISSLQSEDFAVYYCQQSYSWPLTFGGGTKLEIKR
notes: Humanized full-length IgG expressed in HEK293; For SPR it was captured from culture medium through its Fc; also called HC1 + LC1
- Kd [1]: 3.57 nM
- koff [1]: 0.000404 s⁻¹
- kon [1]: 113000 M⁻¹ s⁻¹

B2: VH7 + VL1 (antibody, human IgG1, kappa, V domains shown)
VH: EVQLVESGGGLVQPGGSLRLSCAASGFTFSSYGMSWVRQAPGKGLEWVAIISGGGRDIYYLDSVKGRFTISRDNSKNNLYLQMNSLRAEDTAVYYCSSPIYDAYSFAYWGQGTLVTVSS
VL: EIVMTQSPATLSVSPGERATLSCRASQTISNNLHWYQQKPGQAPRLLIYYASQSISGIPARFSGSGSGTEFTLTISSLQSEDFAVYYCQQSYSWPLTFGGGTKLEIKR
notes: Humanized full-length IgG expressed in HEK293; also called HC2 + LC1
- Kd [1]: 3.04 nM
- koff [1]: 0.000317 s⁻¹
- kon [1]: 104000 M⁻¹ s⁻¹

B3: anti-PD-1 antibody VH7+VL6 (antibody, human IgG1, kappa, V domains shown)
VH: EVQLVESGGGLVQPGGSLRLSCAASGFTFSSYGMSWVRQAPGKGLEWVAIISGGGRDIYYLDSVKGRFTISRDNSKNNLYLQMNSLRAEDTAVYYCSSPIYDAYSFAYWGQGTLVTVSS
VL: EIVLTQSPATLSVSPGERATLSCRASQTISNNLHWYHQKPGQAPRLLIKYASQSISGIPSRFSGSGSGTDFTLTISSLQSEDFAVYFCQQSYSWPLTFGGGTKLEIKR
notes: also called HC2 + LC2
- EC50 [2]: 0.1 nM
- EC50 (nM), inhibition of luciferase signal [3]: 0.38 nM
- EC50 [4]: 0.4 nM
- EC50 [5]: 2.16 nM
- Kd [1]: 1.41 nM
- koff [1]: 0.000218 s⁻¹
- kon [1]: 154000 M⁻¹ s⁻¹

B4: VH6 + VL6 (antibody, human IgG1, kappa, V domains shown)
VH: EVQLVESGGGLVQPGGSLRLSCAASGFTFSSYGMSWVRQAPGKRLEWVAIISGGGRDIYYLDSVKGRFTISRDNSKNTLYLQMNSLRAEDTAVYYCSSPIYDAYSFAYWGQGTLVTVSS
VL: EIVLTQSPATLSVSPGERATLSCRASQTISNNLHWYHQKPGQAPRLLIKYASQSISGIPSRFSGSGSGTDFTLTISSLQSEDFAVYFCQQSYSWPLTFGGGTKLEIKR
notes: Humanized full-length IgG expressed in HEK293; also called HC1 + LC2
- Kd [1]: 0.812 nM
- koff [1]: 0.000127 s⁻¹
- kon [1]: 156000 M⁻¹ s⁻¹

B5: Chimeric VH + VL (antibody, human IgG1, kappa, V domains shown)
VH: EVKLVESGGGLVKPGGSLKLSCAASGFTFSSYGMSWVRQTPEKRLEWVAIISGGGRDIYYLDSVKGRFTISRDNAKNNLYLQMSSLRSEDTAFYYCSSPIYDAYSFAYWGQGTLVTVSA
VL: DIVLVQSPATLSVTPGDSVSLSCRASQTISNNLHWYHQKSHESPRLLIKYASQSISGIPSRFSGSGSGTDFTLSINSVETEDFGMYFCQQSYSWPLTFGAGTNLELKR
notes: also called Parental mouse VH+VL combined with human Fc; parental antibody
- Kd [1]: 0.787 nM
- koff [1]: 0.000163 s⁻¹
- kon [1]: 207000 M⁻¹ s⁻¹
